We go through 1 molecule from article PMC6745058 (Molecular cell, 2019).

This assay has as its target T1, Rtt107NTD (BRCT1-4 domains of Rtt107, residues 2-513) (S. cerevisiae, UniProt P38850 2-513).
T1 sequence (looked up): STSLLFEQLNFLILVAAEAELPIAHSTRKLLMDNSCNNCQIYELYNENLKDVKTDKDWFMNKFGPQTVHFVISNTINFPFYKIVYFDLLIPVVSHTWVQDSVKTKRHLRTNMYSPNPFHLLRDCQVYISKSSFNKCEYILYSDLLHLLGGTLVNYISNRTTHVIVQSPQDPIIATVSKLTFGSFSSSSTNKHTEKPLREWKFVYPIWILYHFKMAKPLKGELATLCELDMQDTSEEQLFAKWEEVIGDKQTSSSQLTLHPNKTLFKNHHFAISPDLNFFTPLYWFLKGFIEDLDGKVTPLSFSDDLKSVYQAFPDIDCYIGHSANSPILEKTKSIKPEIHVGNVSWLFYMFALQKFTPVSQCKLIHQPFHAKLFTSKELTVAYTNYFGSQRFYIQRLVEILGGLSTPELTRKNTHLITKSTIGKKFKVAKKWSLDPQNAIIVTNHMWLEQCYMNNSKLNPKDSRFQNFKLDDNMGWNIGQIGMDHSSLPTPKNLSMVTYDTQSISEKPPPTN
Put plainly: ITC. (In general: Isothermal titration calorimetry measures the heat released or taken up as one component is titrated into another.)

DVDEPNPIVISDSEATDEEISIIYEPEFNENYLWAEE (peptide, UniProt Q06164 2-38, looked up) [Mms22RIM peptide (Mms22 residues 2-38)] had a Kd of 0.015 µM.

What is called Kd is the concentration at which binding is half-saturated. Higher therefore signals lower affinity.
